Assay results: patent publication US12611443B2, “Methods and compositions related to therapeutic peptides for cancer therapy” (THE UNIVERSITY OF CHICAGO, priority 2018, dated 2026)
“Also recorded” adds a separate entry of the source.

T1: ELANE (Homo sapiens, UniProt P08246)
T1 sequence (P08246 30-267): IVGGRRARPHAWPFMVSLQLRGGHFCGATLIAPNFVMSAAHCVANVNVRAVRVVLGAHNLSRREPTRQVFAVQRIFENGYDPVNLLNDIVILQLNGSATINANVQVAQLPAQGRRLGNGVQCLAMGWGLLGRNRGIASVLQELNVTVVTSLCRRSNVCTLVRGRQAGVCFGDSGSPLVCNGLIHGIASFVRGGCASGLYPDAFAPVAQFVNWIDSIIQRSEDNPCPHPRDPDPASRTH

B1: ECP: eosinophil cationic protein, a pore-forming protein (protein)
chain: RPPQFTRAQWFAIQHISLNPPRCTIAMRAINNYRWRCKNQNTFLRTTFANVVNVCGNQSIRCPHNRTLNNCHRSRFRVPLLHCDLINPGAQNISNCTYADRPGRRFYVVACDNRDPRDSPRYPVVPVHLDTTI
B2: C1-2: hCD95 C-terminal peptide aa 221-331 mimicking ELANE cleavage at both sites; death domain containing fragment (protein)
chain: AINLSDVDLSKYITTIAGVMTLSQVKGFVRKNGVNEAKIDEIKNDNVQDTAEQKVQLLRNWHQLHGKKEAYDTLIKDLKKANLCTLAEKIQTIILKDITSDSENSNFRNEI

Assays:
ELANE = biological target: T1, ELANE; test: ELANE activity assay with ECP (chromogenic substrate); assay type: biochemical; conditions: type II allosteric activator
Protocol: ELANE activity assays. Catalytic activity was measured using the chromogenic substrate N-Methoxysuccinyl-Ala-Ala-Pro-Val p-nitroanilide (Sigma, 100 μg/mL) according to manufacturer's protocol. Absorbance was measured at 405 nm using an accuSkan GO UV/Vis microplate spectrophotometer (ThermoFisher Scientific). For inactivation, ELANE was incubated with PMSF (1 mM, Sigma) or A1AT (42 nM, Athens Research & Technology) for 2 h. Residual PMSF was eliminated with a PD-10 desalting column (GE Healthcare Life). To monitor the effect of ECP on ELANE activity, ELANE (10 nM) was incubated with various doses of ECP (0-180 nM) at various substrate concentrations (0-1.7 mM).
Statistics. With the exception of proteomics studies, statistical significance was determined with the Student's two-tailed, unpaired t-test. Linear regression, Michaelis-Menten, and hyperbolic curve fittings were performed using Prism v.7 software.

[1] = tested on: Human monocyte-derived macrophages (HMDMs); test: Cell viability of HMDMs treated with purified ELANE or ECP; assay type: cell-based
Protocol: Primary human blood-derived cells.
(§1) In vitro cell viability assays. […] Luminescence was measured using a Victor X3 luminometer (PerkinElmer).

MDA-MB-231 cells [2] = test: Cell viability of MDA-MB-231 cells treated with purified ELANE or ECP; assay type: cell-based, human
Protocol: as §1

cancer cells = test: CD95 protein overexpression in cancer cells, viability in absence of ELANE (calcein-AM); assay type: cell-based, human; conditions: for cancer cell death/toxicity on expression in the absence of ELANE: transient overexpression
Protocol: FIGS. 1A-1K. ELANE cleaves CD95 to selectively kill cancer cells. (A): Heatmap summary of ELANE's effects on survival, stress, and apoptosis pathways in cancer cells and healthy cells. (B-C): Cancer cells were treated with ELANE (100 nM) and CD95 cleavage was assessed by western blotting using anti-N-terminal (B) or anti-C-terminal antibodies (C). *, lower molecular weight CD95 fragment. (D): Cancer cells or non-cancer cells were transduced to overexpress CD95 proteins, and effects on ELANE-mediated apoptosis were quantified by ANXAS at 30 min. n=2/group. See FIG. 1I for transduction and CD95 over-expression. (E): Cleavage of recombinant human CD95 N-terminal (aa 1-173) or C-terminal (aa 212-335) proteins by ELANE was assessed by SDS-PAGE and Coomassie blue staining. (F): Bands from (E) were digested with trypsin and analyzed by mass spectrometry to identify putative ELANE cleavage sites (i.e., peptides with non-tryptic ends). Major non-tryptic peptides were quantified by ion chromatograms. (G): Schematic of ELANE cleavage sites in CD95. […] (H): Cleavage of recombinant peptides corresponding to aa 214-231 and aa 317-335 in CD95 by ELANE was monitored by mass spectrometry. (I): Cancer cells or non-cancer cells were treated with fluorescein-labeled ELANE for 10 min and uptake was visualized by immunofluorescence. (J): ELANE catalytic activity in cancer cell lysates following exposure to ELANE for 30 mins in the presence and absence of Dynasore (60 μM endocytosis inhibitor). Effect of Dynasore on cancer cell killing capability of ELANE (measured by calcein-AM). n=6/group. (K): Cancer cells or non-cancer cells were transduced to overexpress various CD95 proteins, and cell viability in the absence of ELANE was determined by calcein-AM. n=10/group. *, p<0.05 Student's t-test.
as §1
CD95 overexpression studies. Polycistronic adenoviral vectors were prepared to express the human and mouse CD95 sequences followed by the Encephalomyocarditis virus (EMCV) internal ribosome entry site and dTomato sequence under the control of the cytomegalovirus (CMV) promoter (VectorBuilder). Human and murine cancer cells or normal or non-cancer cells were transduced to over-express full-length CD95, N-terminal CD95 (human: aa 1-209; mouse: aa 1-204), C-terminal CD95 (human: aa 212-335; mouse: aa 204-327), or C-terminal CD95 that mimicked ELANE cleavage at site 1 (human: aa 221-335), site 2 (human: aa 212-331), or both sites (aa 221-331). Cancer cells or normal or non-cancer cells were transduced with adenoviruses at an MOI of 50-250 depending on cell type, and expression of dTomato and CD95 (human: 558814; mouse, mouse: 565130, BD Biosciences) were confirmed by flow cytometry. A vector encoding GFP (Vector Builders) was used as a control.

MDA-MB-231 tumors = test: In vivo testing of Tet-on C1-2 transduced MDA-MB-231 tumors; set-up: species or system nude mouse
Protocol: FIG. 7 In vivo testing MDA-MB-231 tumor regression post C1-2 induction. (A) Tumor weight. (B) Tumor cells (millions) count (post-ficoll gradient). (C) Percent immune cells in tumors (mouse CD45+) measurement by flow cytometry.
In Vivo testing. Mammary glands of a nude mouse model were injected with 2 million Tet-on C1-2 transduced MDA-MB-231 cells. Once tumors reach approximately 80 to 100 mm3 mice are feed either a doxycycline diet or are injected intraperitoneally with doxycycline (50 mg/ml) every 5 days to induce Tet-on system. Tumor growth is monitored. Tumors are isolated and digested on day 21 post doxycycline treatment and tumor weights are measured, tumor cell numbers are counted, and CD45+ cells are measured by flow cytometry.

MCF10A cells = test: Doxycycline-inducible Tet-on expression of C1-2 in MCF10A cells; assay type: cell-based; conditions: doxycycline 2 μg/mL
Protocol: (§2) FIG. 4 Inducible Expression System. Scheme of doxycycline inducible Tet-on system to express either C (aa. 157-335) or C1-2 (aa. 221-331). C1-2 (DD containing fragment) upon addition of doxycycline (both in vitro and in vivo).
(§3) FIG. 5 Confirmation of C1-2 expression and cancer cell selective killing. (A) Tet-on C or C1-2 transduced MDA-MB-231 cells were treated with 2 μg/mL doxycycline (2 μg/mL) for 24 h. Cell lysates were collected for western blot. Confirming the expression of C or C1-2 expression. (B) Tet-on C or C1-2 transduced MDA-MB-231 cells were treated with 0.2 or 2 μg/mL doxycycline for 72 h. Cell viability was measured by Calcein AM. […] (C) Tet-on C1-2 transduced MCF10A cells were treated with 2 μg/mL doxycycline. Cell viability was measured at various time points by Calcein AM.

MDA-MB-231 cells [3] = test: Doxycycline-inducible Tet-on expression of C or C1-2 in MDA-MB-231 cells; assay type: cell-based, human
Protocol: as §2, §3
FIG. 6 In vitro testing MDA-MB-231 cell death post C1-2 induction. (A) Various single colony of Tet-on C1-2 transduced MDA-MB-231 cells were treated with 2 μg/mL doxycycline (2 μg/mL) for 72 h. Cell viability was measured by Calcein AM. Different colonies have different susceptibility of death post C1-2 induction. (B) C1-2 expression of various single colony of Tet-on C1-2 transduced MDA-MB-231 cells post doxycycline treatment were measured by western blot (C), and the level at 24 h was correlated with % death (normalized by full length). […] (C) Immunoblot of C1-2 and full length (FL) CD95 expression for various colony.

| Molecule | increase of ELANE catalytic turnover (kcat) (ELANE) | cell viability, purified protein [1] | killing at concentration present in PMN media, alone (MDA-MB-231 cells [2]; ECP 0.05 μg/mL) | effect on killing capability of ELANE (MDA-MB-231 cells [2]; ELANE 0.25 μg/mL and ECP 0.05 μg/mL) | cell viability, purified protein (MDA-MB-231 cells [2]; MDA-MB-231) | killing mechanism induced by expression (cancer cells; MDA-MB-231 cells) | cancer cell death/toxicity on expression in the absence of ELANE (cancer cells) | cancer cell death/toxicity on expression in the absence of ELANE (cancer cells; listed as aa. 221-331 of SEQ ID NO:1) | tumor growth after doxycycline induction (MDA-MB-231 tumors; doxycycline IP or through the food) | CD45+ immune cells in tumors (MDA-MB-231 tumors; flow cytometry) | cell death/apoptosis on doxycycline-induced expression (MCF10A cells) | selective killing of cancer cells by expression (MDA-MB-231 cells [3]; FIG. 5A-5C) | cell death/apoptosis on doxycycline-induced expression (MDA-MB-231 cells [3]; Tet-on MDA-MB-231, doxycycline 0.2 or 2 μg/mL, 72 h, Calcein AM) | correlation of expression level with extent of apoptosis/death (MDA-MB-231 cells [3]; different colonies of MDA-MB-231 cells) |
| --- | --- | --- | --- | --- | --- | --- | --- | --- | --- | --- | --- | --- | --- | --- |
| B1 | ~12 fold | toxic to HMDMs | could not kill these cells alone | significantly enhanced the selective killing capability of ELANE | killed MDA-MB-231 cells only at doses that were also toxic to HMDMs | – | – | – | – | – | – | – | – | – |
| B2 | – | – | – | – | – | induced the same killing mechanism as treating these cells with ELANE | toxic | induced cancer cell death in the absence of ELANE | induced MDA-MB-231 tumor regression; also recorded: lessened tumor growth | increased the number of CD45^+ immune cells in tumors | failed to induce apoptosis; also recorded: did not cause cell death | can selectively kill cancer cells | induction of cell death in MDA-MB-231 cells; also recorded: underwent apoptosis; also recorded: caused MDA-MB-231 cell death | significantly and positively correlated; also recorded: correlates with MDA-MB-231 cell death |
